The target in assay [1] is ST2-his (human) (UniProt Q01638). In words: BLI (Octet RED384), ST2-his on anti-his sensors, IL-33 pre-mixed with the anti IL-33 control antibody (the complex binds ST2), steady state fit, average of n=2. On the technique in general: BLI is a label-free optical method that tracks binding on a fibre tip over time.
Assay [2] shares this target. In words: BLI (Octet RED384), ST2-his on anti-his sensors, IL-33 100 nM, steady state fit, average of n=2; not at equilibrium, for comparison only.
Assay [3] shares this target. In words: BLI (Octet RED384), ST2-his on anti-his sensors, IL-33 pre-mixed with ten-fold excess of 22A06-458 (the complex binds ST2), steady state fit, average of n=2.

Chain of ST2-his (human) (Q01638 other isoform, or with tags, fused parts or gaps limits assumed): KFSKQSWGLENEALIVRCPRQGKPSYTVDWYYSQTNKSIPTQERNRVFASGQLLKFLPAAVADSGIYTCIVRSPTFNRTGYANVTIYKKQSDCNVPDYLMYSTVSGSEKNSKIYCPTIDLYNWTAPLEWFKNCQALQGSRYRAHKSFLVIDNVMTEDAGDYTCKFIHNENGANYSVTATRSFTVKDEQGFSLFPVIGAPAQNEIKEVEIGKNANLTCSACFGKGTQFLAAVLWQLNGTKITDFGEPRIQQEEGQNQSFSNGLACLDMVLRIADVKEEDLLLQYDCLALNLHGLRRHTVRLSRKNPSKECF

B1: human IL-33 (ligand, not shown: small tags and cut ends)
chain: ITGISPITEYLASLSTYNDQSITFALEDESYEIYVEDLKKDEKKDKVLLSYYESQHPSNESGDGVDGKMLMVTLSPTKDFWLHANNKEHSVELHKCEKPLPDQAFFVLHNMHSNCVSFECKTDPGVFIGVKDNHLALIKVDSSENLCTENILFKLSET
modifications: Biotinylated in Example 2; the site is not stated.
What is called Kd is the free concentration of one partner at which half of the binding sites on the other are occupied at equilibrium, for simple one-to-one binding. Low readings indicate a tighter complex, high ones a looser complex. With B1, the values for the Kd with ST2-his (human) [1], with ST2-his (human) [2] and with ST2-his (human) [3] were 2.4 nM, 7.2 nM and 11.5 nM, respectively.
